{
  "source": "paper doi:10.1101/2024.12.31.629942",
  "about": "(bioRxiv, 2024)",
  "binders": {"B1": {"name": "H-SUMO-ZapA (natural protein)", "chain": "MSAQPVDIQIFGRSLRVNCPPDQRDALNQAADDLNQRLQDLKERTRVTNTEQLVFIAALNISYELAQEKAKTRDYAASMEQRIRMLQQTIEQALLEQGRITEKTNQNFE"}, "B2": {"name": "ZapA (untagged) (natural protein)", "chain": "B1 chain"}, "B3": {"name": "FtsZ^F2A (untagged) (natural protein)", "chain": "MAEPMELTNDAVIKVIGVGGGGGNAVEHMVRERIEGVEFFAVNTDAQALRKTAVGQTIQIGSGITKGLGAGANPEVGRNAADEDRDALRAALEGADMVFIAAGMGGGTGTGAAPVVAEVAKDLGILTVAVVTKPFNFEGKKRMAFAEQGITELSKHVDSLITIPNDKLLKVLGRGISLLDAFGAANDVLKGAVQGIAELITRPGLMNVDFADVRTVMSEMGYAMMGSGVASGEDRAEEAAEMAISSPLLEDIDLSGARGVLVNITAGFDLRLDEFETVGNTIRAFASDNATVVIGTSLDPDMNDELRVTVVATGIGMDKRPEITLVTNKQVQQPVMDRYQQHGMAPLTQEQKPVAKVVNDNAPQTAKEPDYLDIPAFLRKQAD"}},
  "key": {"[1]": {"target": "T1, FtsZ^D212N (untagged) (E. coli, UniProt P0A9A6 1-383, D212N)", "T1 sequence": "B3 chain with A2F, D212N", "experiment": "pull-down"}, "[2]": {"target": "T2, FtsZ (wild-type, untagged) (E. coli, UniProt P0A9A6 1-383)", "T2 sequence": "B3 chain with A2F", "experiment": "co-sedimentation"}, "[3]": {"target": "the molecule itself", "experiment": "sedimentation of polymers"}},
  "note": "Positions count from the first letter of the chain named. In names and notes the source's numbering stands.",
  "data": [
    {"binder": "B1", "values": [
      {"measurement": "binding result", "setting": "[1]", "value": "binds"}
    ]},
    {"binder": "B2", "values": [
      {"measurement": "binding result", "setting": "[2]", "value": "binds"}
    ]},
    {"binder": "B3", "values": [
      {"measurement": "binding result", "setting": "[3]", "value": "binds"}
    ]}
  ]
}
